As a reminder, the stoichiometry N is the number of molecules, sites or subunits per partner or assembly.

Data set [1] concerns the molecule itself. Nature of the data set: cross-linking; DSS cross-linking of gB-overexpressing cells, western blotting of the natural form of gB^23–431. In general terms: A western blot detects proteins with antibodies after separation by electrophoresis.
Data set [2] deals with T1, GST-NRP1^ABC (soluble extracellular ABC domain of NRP1) (human, UniProt O14786-1 30-862).
T1 construct: neuropilin 1 residues 30-862 (extracellular ABC domain), amplified from pMSCV-NRP1, in pGEX-6p-1; also called pGEX-NRP1^ABC; pGEX-GST-NRP1^ABC; source: E. coli Rosetta, purified (Glutathione agarose)
T1 sequence: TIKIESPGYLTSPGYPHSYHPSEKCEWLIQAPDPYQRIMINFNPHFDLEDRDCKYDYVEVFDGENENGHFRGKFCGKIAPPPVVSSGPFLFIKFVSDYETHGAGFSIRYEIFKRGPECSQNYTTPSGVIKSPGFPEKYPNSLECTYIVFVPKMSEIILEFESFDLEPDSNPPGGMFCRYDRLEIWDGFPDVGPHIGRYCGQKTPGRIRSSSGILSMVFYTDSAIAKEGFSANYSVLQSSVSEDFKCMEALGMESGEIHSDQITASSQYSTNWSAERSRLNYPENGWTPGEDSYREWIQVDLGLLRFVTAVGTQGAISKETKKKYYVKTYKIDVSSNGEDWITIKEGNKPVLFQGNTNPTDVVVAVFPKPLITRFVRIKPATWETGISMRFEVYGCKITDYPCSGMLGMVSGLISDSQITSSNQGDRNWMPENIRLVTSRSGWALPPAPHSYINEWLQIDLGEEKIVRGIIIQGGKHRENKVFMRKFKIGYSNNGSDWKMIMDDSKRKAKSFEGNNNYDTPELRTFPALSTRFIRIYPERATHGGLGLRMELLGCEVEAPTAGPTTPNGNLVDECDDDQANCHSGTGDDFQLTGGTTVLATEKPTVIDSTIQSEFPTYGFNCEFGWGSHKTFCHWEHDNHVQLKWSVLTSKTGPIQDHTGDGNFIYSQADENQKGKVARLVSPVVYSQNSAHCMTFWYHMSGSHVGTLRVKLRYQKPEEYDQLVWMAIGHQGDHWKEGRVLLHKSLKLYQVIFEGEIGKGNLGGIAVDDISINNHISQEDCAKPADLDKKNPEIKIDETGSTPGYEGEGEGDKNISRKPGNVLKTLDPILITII
Nature of the data set: ELISA; plates coated with 200 ng purified FLAG-gB^23–431, various concentrations of GST-NRP1 or GST-NRP2 for 2 h at RT, rabbit anti-GST and HRP-conjugated secondary antibody; apparent affinity constant. As to conditions: both partners purified. (In general: In an ELISA, binding on a coated surface is turned into a signal by an enzyme label.)

B1: FLAG-gB^23–431 (EBV glycoprotein B residues 23-431, CendR motif exposed) (domain or fragment)
chain: QTPEQPAPPATTVQPTATRQQTSFPFRVCELSSHGDLFRFSSDIQCPSFGTRENHTEGLLMVFKDNIIPYSFKVRSYTKIVTNILIYNGWYADSVTNRHEEKFSVDSYETDQMDTIYQCYNAVKMTKDGLTRVYVDRDGVNITVNLKPTGGLANGVRRYASQTELYDAPGWLIWTYRTRTTVNCLITDMMAKSNSPFDFFVTTTGQTVEMSPFYDGKNKETFHERADSFHVRTNYKIVDYDNRGTNPQGERRAFLDKGTYTLSWKLENRTAYCPLQHWQTFDSTIATETGKSIHFVTDEGTSSFVTNTTVGIELPDAFKCIEEQVNKTMHEKYEAVQDRYTKGQEAITYFITSGGLLLAWLPLTPRSLATVKNLTELTTPTSSPPSSPSPPAPSAARGSTPAAVLRRRR
notes: Epstein-Barr virus glycoprotein B (gB), residues 23-431, amplified from the gB expression plasmid p2670; ends with the CendR motif 428-431 (furin cleavage site); Secreted into the supernatant; the signal peptide of the vector is not described; also called EBV-gB^23–431; pCEP-his-FLAG-gB^23–431; source: HEK-293FT, transfected, in lysate (co-IP; M2 beads for the pull-down)
For B1, the “stoichiometry N” value in data set [1] was found to be 3. For the same molecule, the binding result in data set [2] was “binds”.

For the origin of these results see publication PMC4339892, “Neuropilin 1 is an entry factor that promotes EBV infection of nasopharyngeal epithelial cells” (Nature Communications, 2015).
